Data on 21 sequences can be found in the DeepSol protein solubility set.

This series can be described thus: soluble on expression in E. coli; label from the status in PepcDB or PDB records.
Regarding “MPTPEDVPMDENDAGRVAEGSQDESKTPSREVLKKLLNEVEMAEMEENEMWYLISQKWWNSLIKAVRDGFVDDVGPIDNSQISECRNGSFFLKQRLAEQVDYTPVPEILFKRLERFYHIDDDRRDYIQRRVVRKDGKLCIEVYPRIVHITSARNRDIKADLVLRPDDTMVSLRERVIGELSLSTTDNIRFYVMNGENYELIDTAQSIDSYFDTVQKVVVDVEEDGEFFIKGKSATPKSLFGTQSSSSHGGNGISNSYNSPSPSTGVVTRTTPGACGLSNLGNTCFMASAFQCLSNMPPLREYFLANTYQNDINEDNPLGTHGHLAMAVGELMKGMWSGDYASINPRKFKSIIGQFAPRFNGYSQQDAHELMAYVLDGLHEDLNRIKKKPYIEDSDEDAKLPEAEYAAKSWEVYKMRNDSIIVDTLHGQLKSTLICPVCEKISIKFDPFGYLSLPLPPKEQIVKQTVIVMFLTRKWAKFSLGITDTTTVEEAERLMLDKLQPEQQHHFVFFHVPSQYHDDITMMRPGDRVRMPGREVYVAEVEHDLQVKGTRLFVAYNRIKLVRSASLPMIYSLPTGYPLTRGFLNDHVFSTTKHFFINPKAVAELGGGNSNDDDSMSGSNSADEREPYKLFVGPPGSTASLPIPPTDDPIPFPDENSHDIYSNFLQIVFQWKDLKIFNQYKGNELIEREMTVSTRRKVLLQETLDWFTTKEQLGEQDSWYCPQCKKHERATKQLALWKLPEILILHLKRFQYTKWSREKLTWEVVIPVRGLDLTDKVANPNHEKAIYDLIAVSRHYGSLSGGHYTAIGYNDREQKWFDFNDSSANPTYPPAEPYESSDPYILVYRRRKLDSNGKPIEPSAVSESLHSRPKRGAAPTISSATSSASSSRHQVDENMEMEED”, the “soluble on expression in E. coli” value was “not soluble”.
Consider “CNFDCLYCELEGKKATDSMGEVAKVEEILEELREALPRYKPDVITVTANGEPTLYPALLPLIRGINALPHSAKTLILSNGSRFGEPEVQEALLEFDMVKFSLDAVSARAFKRVDRAHDSLSISQIIQGIKGFRSRYRGDLIAEVLFVKGVNDSPEEARAIARVLKEIAPSRVDLSTIDRPPAYKVEGVSPQKLEE”, for which the “soluble on expression in E. coli” value was “not soluble”.
The value for “MGSDKIHHHHHHMQPLAQTLDRIRTISEYLKPEFGIPADGNWVSVADDFVSGSPWLTSMIAAEQTRLRTTSAAIIGSTLLQNYQWPIIPTVVACYLFEQRVPDLAPANTRVHFTAEHQADALALLGGRFSALPDDPAAEHPDATIVPDRAALRDAMRTGIESHFAVVIEHICAALGCKPRGLWLNVADAVANALIWLAQQHAAFDPTQIEAEVEAVIRVPGSPLNNRQVGLIQLSYGENRQLFLRRATCCYWYKTEGGEYCLTCPHRTAEDRQARLLAYMAQKYTQQQQLVQEEVTA” was “not soluble”.
With “MNIDLNADLGEGCASDSELLTLVSSANIACGFHAGDAQTMLTCVREALKNGVAIGAHPSFPDRDNFGRTAMVLPPETVYAQTLYQIGALGAIVQAQGGVMRHVKPHGMLYNQAAKDPHLAQAIAKAVHDYDPSLILVGLAGSELIRAGERHRLVTRQEVFADRGYQADGSLVPRMQPGALIHDEEQALAQTLDMVQAGRVKSVTGVWTTVTAQTVCIHGDGEYALAFARRLRAAFNARNIHVIALEHHHHHH”, the “soluble on expression in E. coli” value was “soluble”.
The value for “MGSDKIHHHHHHMPKVEIAPSEIKIPDNVLKAKLGFGGAEEIPEEFRKTVNRAYEELLDAAKPVVLWRDFEVDGSLSFDDMRLTGELATKHLSGSKIITVFLATLGKKVDEKIEEYFRKGEDLLAFFIDGIASEMVEYALRKVDAELRMKRSNLEGSFRISPGYGDLPLSLNKKIAEIFKEEVDVNVIEDSYVLVPRKTITAFVGWREKNEKQT” was “soluble”; that for “MGSDKIHHHHHHMKGLYIGAAGMMNYMQHIQVHSNNVANAQTPGFKFDQLTSEVISRNKVNYQNGPVARQVGTIDYGVRPAATHINLTAGSSYITNRDRDFFMQDTDPTQGSNFFITAKNGEISLSRGGQFHSDQFGFLRTADGANLLSATGEAIQVGQKTSIRSEANGDLYNAETGQYLGRLGTKFVSANQADSLVKDGEGRLHVNGINTMNLPAGQGIIQNGVIETSNVDLGVEMVQLMDNQRMVQASKNVVNMFDKVYDKEATGLIRQ” was “not soluble”; that for “MILLSKQTPLGAGRHRKCYTHPDNARRCIKVIYNRDHGGDKEIRRELSYYAHLSRYLTDWSAIPRYYGTVETDCGTGYVYDMITDFNGAPSITLTEFAAQCRYEEDVAVLRRLLKKLKRYLLDNHIVTMSLKPQNILCQRISESEVVPVVCDNLGESTFIPLATWSTWCCERKLERVWQRFIAQPALAVALERDAQPKDKKRLALTSHEALEHHHHHH” was “not soluble”.
The same measure for “MGSDKIHHHHHHMARQFVYFMQGLTKAYPTRKVLDNVHLSFYPDAKIGVLGVNGAGKSTLLKIMAGIDKEYTGEAWVAEGARVGYLEQEPQLDPALTVRENVMLGVAKQKAILDRYNELAMNYSEETADEMTALQDQIESAGLWDLDSKVDQAMDALRCPPDDADVTKLSGGERRRVALCKLLLDQPDLLLLDEPTNHLDAESVSWLESHLRNYPGAILIVTHDRYFLDNVTSWILELDRGRGIPYEGNYSSWLVQKQKRLLQEGREDAAHQKTLEREQEWIASSPKARQAKSKARYQRYEELLAKASEKQTQTAQIIIPVAERLGNNVVDFEHLTKGFGDKLLIDDLTFKLPPGGIVGVIGPNGAGKTTLFRMITGQEKPDQGTITVGETVHLGYVDQSRDSLDAKKTVWEEISGGNELILLGKKEVNSRGYCSAFNFKGGDQQKKVGSLSGGERNRVHLAKMLKSGANVLLLDEPTNDLDVDTLRALEEALEDFAGCAVIISHDRWFLDRIATHILAFEDDSHVEWFEGNFQDYEKDKMRRLGQDAIIPHRAKYKKLTR”: “not soluble”.
The value for “MSGGGVIRGPAGNNDCRIYVGNLPPDIRTKDIEDVFYKYGAIRDIDLKNRRGGPPFAFVEFEDPRDAEDAVYGRDGYDYDGYRLRVEFPRSGRGTG” was “soluble”; that for “MEAIDQLVGQWQKDGLSPSQVAEKFSKCVLYVTCEPCIMCASALSFLGIKEVYYGCPNDKFGGCGSILSLHLGSEEAQRGKGYKCRGGIMAEEAVSLFKCFYEQGNPNAPKPHRPVVQRERT” was “soluble”.
“MGSDKIHHHHHHMVIELKNEKVTVQFKEFGGALSSIKDQDGIEYLWQGNPAYWSSQAPVLFPICGSLRNDKGIYTSKKHSHRYGSIPRHGLVRKKNFRFEQLGKDSVVFTITPDKEMLMQYPYHFELKIIYTLKHTTIRTEYQVINKEKESIMPYFIGGHPGLNCPLFAGDRYEDYYLEFEKEETCTVPKSFPDTGLLDLQDRKIFLKGQKYLDLDYSLFTHDAITLDNLQSRSVSLRSKNHGGGLRLDFADFPYLILWSTANKSPFIALEPWSGLSTAVDESDYFEEKRNVSFVEPGQFDRNYFDITVL”: the “soluble on expression in E. coli” value is “not soluble”.
With “METVPGGRWVAEIYGCDVDILEDPKMVEAALVDAVMRLGAPRDSVQSVVYKFHPQGLSAAVVSPVAAVMIHTWPEDNASATLDLYFYRDGVDPEEVLKGLTRAFGAKEESAFRYWRGTEHAIKRRGFGAEKAE”, the “soluble on expression in E. coli” value was “soluble”.
On to “MSLVEKPVVIKFGGTSVRYAFEEALELVAKLHENMKIIVVVSALAGVTDCLLRLAKGDKSALLEIDEIHEELSQELNVQLEHLIHQLKKTINSKSSFPSEKAFIDEIASFGERFSAKLFSEGLKILGITARPVDSKDVLFVKGEFGNAEVEFKKSAQGVDVLYRMLRRGIVPVVTGYYGNLNGFRATFGRGGSDYSATSIASLVNAKAVLIMSDVEGIYTADPKLVPPARLIHYISYKEAKTAAKLGMKVLHPRAIDPVEGKIPVILGKTRDLKFGTLISHESQGIPIVTHKLLENHAEISVVSVKTNIPLPYEVYEEGDLYFKIKTSKDQFLEVLRDVHRRVVENENLHSSHDGELWTWVEGHHHHHH”, for which the “soluble on expression in E. coli” value is on record as “soluble”.
The same measure for “MNILFAVSECVPFVKSGGLADVAGALPKELKKLGVDVRIILPNYSLIPQKLRDGCTLHKVINVPLGWRNQYCGILKGEQDGITYYLIDNEYYFKRDSLYGHYDDGERFSYFSKAVLECIPHLDFEVDVLHSHDWHTAMVNFLLREKYQDNPLYERIKTVYTIHNLQFQGVFPPEVIYDLLELGDEYFHSEQLEFYGNVNFMKGGIIASDQITAVSPTYKEEIQYEFFGEKLDGLLRKYNDKLSGIVNGIDTSVYNPETDSYIKAQYDAESLYEKSENKRALQRYFGLPEKEDTPIISMVTRLTKQKGLDLVRTVFREIMEEDVQCIILGSGDSEYEQFFEWMAYEYPEKVKVYIGFNEELAHQVYAGSDLFLMPSLFEPCGLGQLIALAYGTIPIVRETGGLNDTVHSYDEETGEGNGFSFTNFNAHDMLHTIHRAIEFYHDKPVWEQLVKQAMTEDYSWEQSALAYKELYKSLME”: “soluble”; for “MSLTTMAEHFLTLLVVPAIKKDYGSQEDFTQVWNTTMKGLKCCGFTNYTDFEDSPYFKENSAFPPFCCNDNVTNTANETCTKQKAHDQKVEGCFNQLLYDIRTNAVTVGEGHHHHHH”: “not soluble”; for “MSGLPQGRPTFGAAQNVSAVVAYDLSAHMLDVVAQAAEARQLKNITTRQGYAESLPFADNAFDIVISRYSAHHWHDVGAALREVNRILKPGGRLIVMDVMSPGHPVRDIWLQTVEALRDTSHVRNYASGEWLTLINEANLIVDNLITDKLPLEFSSWVARMRTPEALVDAIRIYQQSASTEVRTYFALQNDGFFTSDIIMVDAHKAALEHHHHHH”: “not soluble”.
The value for “MGSDKIHHHHHHMPTLKEKIIQESQRLGIDKIGFTHAEPFIELEDSLHEQRERGYNSGFEHQNVEERIYPEKTFEHPKSIISIALAYPTKAQEKMPRDEKRGQFARASWGIDYHHILQDRLQKLIAFIEEQAATEAEKEHWRFRPQVDTGEYVDTAVAQRAGLGFIGKNGLLITEEFGSFVYLGEVTTNIQFEPDEPVPNGCGDCTRCITGCPTGALLGDGRMNAQKCLSYQTQTKGMMPEDYRKKMRNVIYGCDICQLVCPYNKGKDFHFHEEMEPKIEEVYPKLAPLLTISNKEFKQQFGHLAGSWRGKKPLQRNALIALANLGGREAIPQIILCLNDQRPVIRGTAAWSLGQLAKREPEQSLEALNYLLSVETEEEVIEEAQKAIHLLTSKKGSRSTE” was “not soluble”.
With “MGSDKIHHHHHHMEPGSQVTDRLRFGCTGCGKCCTGHHVPLTLAEARRWAEDAGQVVVLIEAFVVDGPGMPLEQRDHVLRRSHPVHCGEGEARVSVTFAAFNPGRCRNLDANDLCTIYEQRPLVCRIYPVEINPHIPLRPDSKDCPPEAWQQGPELIHGTQLVDVELQALVQASRQADRDDIAAKVAVCQALGMTTSALKGNGFTAYLPDMGAFAAALAQVQGNEGAQWTLHVQDEALTASLQALGLRTTHETPVYYAFIGF”, the “soluble on expression in E. coli” value is on record as “not soluble”.
The same measure for “MANDGGAKLSKNLLRMKFMQRGLDAEVKKQLDEEEKRIISDEHWFLDLPELKAKENHIIEERSFVPCEDLVYGRMSFKGFNPDVEKLMLLMNAPREEEDEEEEDESMNKMETDITDEEMAKRYQSLVESMRKKFAKKRDRSAVSNKEDVNCNVTDDIRPKRAFMKPQD”: “soluble”; for “MSLSEFWKEKHGEREQDHEKTIMDGYSVANRFDGTGGGWGYSANSVEAIQFKVSKEIRLVGVGLYGGRGEYISKLKLYRQIGTEADELYVEQITETDETVYDCGAHETATMLFSQPIVIQPNHWHVVSAKISGPSSDCGANGKRHVECDGVTFQFRKSAVSNNGTDVDVGQIPELYYQIVGGSESRDESDSNKQLSISREGHHHHHH”: “soluble”.
On to “MGSDKIHHHHHHMKVLLTRPEGRNQSMVDALNERGIEHCVTPLLCVEATPALPPETSHPLANVDMVVCISANAVSFADDTFKANDANVKGWPKVPYFAVGHATWEALQQIDIDALEAPDDCQQTEGLLTLPTLQHIQGKKITIIRGVGGREALAEQLTSRGAQVRYWEVYQRACPPLDGTIITQQWIDLGIDTVVVTSGEVLDNLINLVPKELFAWLRSCHIIVPSNRVEAQAHAFGITQVTNANAANSKAVLNALKL”, for which the “soluble on expression in E. coli” value is “not soluble”.
